According to publication PMC8838988:

Target: PiCDPK1, full-length 6X N-terminal His-fusion protein (Petunia inflata)
Sequence (main, as listed by the source): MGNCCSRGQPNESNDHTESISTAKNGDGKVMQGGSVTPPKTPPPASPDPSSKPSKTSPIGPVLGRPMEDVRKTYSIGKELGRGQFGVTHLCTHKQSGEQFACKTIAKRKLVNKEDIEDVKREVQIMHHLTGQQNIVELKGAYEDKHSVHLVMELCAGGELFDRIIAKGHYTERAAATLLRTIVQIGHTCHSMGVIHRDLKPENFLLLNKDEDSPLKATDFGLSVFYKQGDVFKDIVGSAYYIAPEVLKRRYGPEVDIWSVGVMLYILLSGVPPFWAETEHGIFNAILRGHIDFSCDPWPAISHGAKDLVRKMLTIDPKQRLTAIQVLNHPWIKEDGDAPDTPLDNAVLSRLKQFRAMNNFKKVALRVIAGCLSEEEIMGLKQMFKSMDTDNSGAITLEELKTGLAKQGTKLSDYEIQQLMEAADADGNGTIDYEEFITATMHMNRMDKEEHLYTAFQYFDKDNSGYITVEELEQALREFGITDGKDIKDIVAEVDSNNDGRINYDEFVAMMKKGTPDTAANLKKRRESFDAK

Km of the phosphorylation of PiRhoGDI1 by PiCDPK1 (Michaelis-Menten conditions): 2.2 µM
Vmax of the phosphorylation of PiRhoGDI1 by PiCDPK1 (Michaelis-Menten conditions): 1920 pmol/min/mg
Substance: PiRhoGDI1, full-length 6X N-terminal His-fusion protein (natural protein)
